The assay has as its target Neurofibromin (NF1), full length, isoform 1 (human) (UniProt P21359). The assay is described as follows: AUC.

As usually defined, the stoichiometry N is the number of molecules, sites or subunits per partner or assembly.

In turn, “Neurofibromin (NF1), full length, isoform 1, P21359-2 1-2818” gave a stoichiometry N of 2.

For the origin of these results see publication doi:10.1101/2021.02.18.431788.
